Measured values as given in article PMC4071823, “Gamma-secretase subunits associate in intracellular membrane compartments in Arabidopsis thaliana” (Journal of Experimental Botany, 2014).

T1: AtPEN-2–RFP (Arabidopsis thaliana, UniProt Q9FY84 1-146)
T1 construct: Arabidopsis thaliana PEN-2 (AtPEN-2, At5g09310); FLIM-FRET acceptor; also called presenilin enhancer 2; source: A. thaliana leaf mesophyll protoplasts, transiently transfected (pSITE vector), in living cells; not shown: mRFP, C-terminal, kept
T1 sequence (looked up): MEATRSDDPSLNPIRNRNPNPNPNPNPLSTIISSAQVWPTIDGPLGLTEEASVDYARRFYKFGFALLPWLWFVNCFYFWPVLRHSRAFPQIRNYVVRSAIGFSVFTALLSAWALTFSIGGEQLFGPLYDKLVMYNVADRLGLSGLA

T2: AtNCT–RFP (Arabidopsis thaliana, UniProt Q8GUM5 29-676)
T2 construct: Arabidopsis thaliana nicastrin (AtNCT, At3g52640); FLIM-FRET acceptor; also called nicastrin; source: A. thaliana leaf mesophyll protoplasts, transiently transfected (pSITE vector), in living cells; not shown: mRFP, C-terminal, kept
T2 sequence (looked up): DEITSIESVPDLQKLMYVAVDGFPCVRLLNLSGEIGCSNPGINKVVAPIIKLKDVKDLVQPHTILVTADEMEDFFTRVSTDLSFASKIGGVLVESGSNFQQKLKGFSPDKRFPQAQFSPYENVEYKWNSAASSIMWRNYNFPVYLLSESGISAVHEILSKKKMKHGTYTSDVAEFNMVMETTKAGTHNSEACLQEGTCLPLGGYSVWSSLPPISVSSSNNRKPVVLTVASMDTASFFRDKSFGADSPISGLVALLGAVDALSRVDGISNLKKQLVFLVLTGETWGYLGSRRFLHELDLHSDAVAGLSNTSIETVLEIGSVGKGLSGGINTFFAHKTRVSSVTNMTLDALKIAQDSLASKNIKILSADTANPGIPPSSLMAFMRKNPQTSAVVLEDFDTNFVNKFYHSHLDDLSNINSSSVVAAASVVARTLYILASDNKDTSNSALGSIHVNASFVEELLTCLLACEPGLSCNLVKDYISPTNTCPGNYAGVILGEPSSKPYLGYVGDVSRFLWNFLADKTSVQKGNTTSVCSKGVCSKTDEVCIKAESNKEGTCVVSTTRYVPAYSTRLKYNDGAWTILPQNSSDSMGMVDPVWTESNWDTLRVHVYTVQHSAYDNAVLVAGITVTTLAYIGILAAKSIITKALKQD

B1: AtPS1–GFP (natural protein, Arabidopsis thaliana, UniProt O64668 1-453, looked up)
chain: MESSILDSLGVEIIGVMAPVSICMFLVVLLTYSLSVTSDPQIRSAANLIYIENPSDSTTVKLEGSLANAIVFVVLIAAVTFILVLLFYYNFTNFLKHYMRFSAFFVLGTMGGAIFLSIIQHFSIPVDSITCFILLFNFTILGTLSVFAGGIPIVLRQCYMVVMGIVVAAWFTKLPEWTTWFILVALALYDLVAVLAPGGPLKLLVELASSRDEELPAMVYEARPTVSSGNQRRNRGSSLRALVGGGGVSDSGSVELQAVRNHDVNQLGRENSHNMDYNAIAVRDIDNVDDGIGNGSRGGLERSPLVGSPSASEHSTSVGTRGNMEDRESVMDEEMSPLVELMGWGDNREEARGLEESDNVVDISNRGIKLGLGDFIFYSVLVGRAAMYDLMTVYACYLAIISGLGCTLILLSVYNRALPALPISIMLGVVFYFLTRLLMEPFVVGVTTNLMMF
notes: Arabidopsis thaliana presenilin 1 (AtPS1, At1g08700); FLIM-FRET donor; also called presenilin 1; source: A. thaliana leaf mesophyll protoplasts, transiently transfected (pSITE vector), in living cells; not shown: eGFP, C-terminal, kept
B2: AtNCT–GFP (natural protein, Arabidopsis thaliana, UniProt Q8GUM5 29-676, looked up)
chain: T2 sequence (looked up)
notes: Arabidopsis thaliana nicastrin (AtNCT, At3g52640); FLIM-FRET donor; also called nicastrin; source: A. thaliana leaf mesophyll protoplasts, transiently transfected (pSITE vector), in living cells; not shown: eGFP, C-terminal, kept
B3: AtPS2–GFP (natural protein, Arabidopsis thaliana, UniProt Q9SIK7 1-397, looked up)
chain: MDRNQRPRSILDSLGEELIAILTPVSICMFTVVLLVCILNSDPSSSSASFSSIATAAYSESDSDSSWDKFVGALLNSVVFVAAITVATFVLVLLFYLRCVKFLKFYMGFSAFIVLGNLGGEILVLLIDRFRFPIDSITFLILLFNFSVVGVFAVFMSKFSILITQGYLVWIGVLVAYFFTLLPEWTTWVLLVALALYDIAAVLLPVGPLRLLVEMAISRDEDIPALVYEARPVIRNDSRSVQRRVWREQRSSQNNANRNEVRVVESAEVEEEHVGSSERAEISVPLIDRRPEQAENSETFLEGIGLGSSGAIKLGLGDFIFYSVLVGRAAMYDLMTVYACYLAIIAGLGITLMLLSVYQKALPALPVSIMLGVVFYFLARLLLEVFVVQCSSNLVMF
notes: Arabidopsis thaliana presenilin 2 (AtPS2, At2g29900); cDNA made from leaf RNA; FLIM-FRET donor; also called presenilin 2; AtAtPS2–GFP; source: A. thaliana leaf mesophyll protoplasts, transiently transfected (pSITE vector), in living cells; not shown: eGFP, C-terminal, kept
B4: AtPEN-2–GFP (natural protein, Arabidopsis thaliana, UniProt Q9FY84 1-146, looked up)
chain: T1 sequence (looked up)
notes: Arabidopsis thaliana PEN-2 (AtPEN-2, At5g09310); FLIM-FRET donor; also called presenilin enhancer 2; source: A. thaliana leaf mesophyll protoplasts, transiently transfected (pSITE vector), in living cells; not shown: eGFP, C-terminal, kept

What was measured:
Experiment in all cases: FRET or BRET; FLIM-FRET in living A. thaliana leaf mesophyll protoplasts that co-express the two fusions; eGFP donor, mRFP acceptor; E=1−τDA/τD×100%; FRET efficiency above the threshold of 5% (free eGFP with free mRFP) taken as putative positive interaction
Conditions in all cases: partners not purified
[1] = target: T1, AtPEN-2–RFP
[2] = target: T2, AtNCT–RFP
[3] = target: T3, AtAPH-1–RFP (Arabidopsis thaliana, UniProt Q8L9G7 1-250)
T3 construct: Arabidopsis thaliana APH-1 (AtAPH-1, At2g31440); FLIM-FRET acceptor; also called anterior pharynx-defective 1; source: A. thaliana leaf mesophyll protoplasts, transiently transfected (pSITE vector), in living cells; not shown: mRFP, C-terminal, kept
T3 sequence (Q8L9G7 whole entry): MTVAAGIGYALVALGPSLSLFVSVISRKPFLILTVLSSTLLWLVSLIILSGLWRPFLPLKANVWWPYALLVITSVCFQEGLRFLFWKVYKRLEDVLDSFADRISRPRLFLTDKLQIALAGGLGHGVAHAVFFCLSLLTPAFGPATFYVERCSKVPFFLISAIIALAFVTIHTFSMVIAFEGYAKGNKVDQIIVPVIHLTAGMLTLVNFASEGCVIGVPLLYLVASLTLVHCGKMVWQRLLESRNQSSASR

Binder | FRET efficiency, E_(FRET) [1] [%] | FRET efficiency, E_(FRET) [2] [%] | FRET efficiency, E_(FRET) [3] [%]
B1 | 24 | 19 | 19
B2 |  |  | 14
B3 | 32 |  | 20
B4 |  | 11 | 
